Measurements reported in patent US20250242017A1, “HISTAMINE AND HRH1 SIGNALING ACTIVITY AS BIOMARKERS AND ASSOCIATED METHODS” (Board of Regents, The University of Texas System, priority 2022, published 2025).

Assays:
VISTA+ BMDMs = experiment: VISTA membrane expression on macrophages after Ca2+ flux modulation; assay type: cell-based, mouse
Excerpt: (§1) Flow cytometry staining and analysis.

[1] = system: early-stage breast cancer; experiment: Retrospective analysis of medications in stage 0 or 1 breast cancer patients; assay type: in vivo, human; details: poor outcome = recurrence or death; for estimated patient number with poor outcome: based on estimated 2.54% of patients taking the medication; for actual patient number with poor outcome: patients taking the medication
Excerpt: To explore whether some medications have impact on early-stage breast cancer recurrence, we performed a retrospective analysis of the most commonly prescribed medications took by patients with stage 0 or stage 1 breast cancer. Stage 0 and 1 breast cancers are highly treatable early-stage breast cancers and generally have very good prognosis in the first five years. Typically, surgery, radiation, or a combination of the two are the standard treatments. Hormone therapy, depending on the type of cancer cells and additional risk factors, is also an option. To rule out potential impact of the medications on therapies, patients who received treatment other than surgeries were excluded. 1652 patients diagnosed with stage 0 or 1 breast cancer at MDACC between 2016-2021 were enrolled in the study. 29 patients have been diagnosed with cancer recurrence (1.76%) and 3 out of 29 patients were deceased by 2021. Another 13 patients were also deceased, but whether cancer is the cause of their deaths is not clear. Altogether, total 42 patients (2.54%) have poor clinical outcome, including cancer recurrence or death. We first analyzed the 50 most prescribed drugs in USA which include many common drugs such as Aspirin, Simvastatin, and Metformin. About half of the drugs (24) were took by >100 patients based on their electric health record. To cover more medications, we further expanded the drug list by adding the top 20 over-the-counter medicines (OTC) sold on AMAZON website. To explore potential impact of medications on cancer recurrence and patient mortality, we compared the predicated patient numbers with poor clinical outcomes (X-axis) based on the estimated 2.54% (the ratio of total patients with poor outcome to total number of patients) versus the actual patient number with poor outcomes (Y-axis) of each medication (FIG. 15A). Most medications show limited impacts on patients' outcome, including Aspirin (8.5 vs. 8, estimated vs. actual patient number with poor outcome) and Metformin (3.5 vs 4). […] Instead, antihistamine may intercept or delay early-stage breast cancer progression by enhancing immune surveillance.

melanoma patients = experiment: Retrospective Epic SlicerDicer analysis of anti-PD-1/PD-L1-treated melanoma patients; assay type: in vivo, human; details: patients taking the medicine during anti-PD-1/PD-L1 treatment vs those who did not
Procedure: Epic SlicerDicer software analysis. Our retrospective study was conducted on melanoma patients encountered during 2016-2017 at The University of Texas MD Anderson Cancer Center, which draws a diverse range of local, regional, national, and international patients. The study population consisted of all melanoma patients with of International Classification of Diseases (ICD) code C43 (10th version). Anonymized aggregate-level data were collected using the SlicerDicer function within MD Anderson Epic electronic medical records. Institutional Review Board approval was therefore waived. Using the Epic SlicerDicer, we identified 9922 patients with a visit diagnosis, billing diagnosis, or active problem list with malignant skin of melanoma (ICD-10-CM:C43, which includes all subgroups). EPIC SlicerDicer was used to further identify 878 of these patients who received anti-PD-1 antibodies (pembrolizumab, nivolumab, or cemiplimab) or anti-PD-L1 antibodies (durvalumab, atezolizumab, or avelumab) treatment during the study period. […] The estimated patient deaths of each subgroup were calculated based on the patient number of each subgroup and the average patient death rate (39%, based on deceased patients out of total patients analyzed). […] The survival time was calculated as the days between the two dates. […]

peritoneal macrophages = details: histamine 10 mM, vs vehicle-treated
Procedure: Macrophage polarization and stimulation. To polarize macrophages toward an M1-like phenotype, we stimulated PBMC-derived macrophages or BMDMs with IFN-g (20 ng/ml, PeproTech) for 48 hours. To induce an M2-like phenotype, we treated THP-1-derived macrophages or BMDMs with IL-4 (20 ng/mL, PeproTech) for 48 hours. […] To stimulate macrophages with tumor cell-derived conditioned medium (TCM), we cultured BMDMs with complete medium containing 50% TCM (volume).
Flow cytometry staining and analysis. Live single cells were sub-gated by staining with Fixable Viability Dye eFluor 450 (eBioscience) for 15 minutes at 4° C. For blocking of Fc receptors, cells were then pre-incubated with purified anti-CD16/32 antibody (clone 93, BioLegend) for 10 minutes on ice before immunostaining. After one wash with flow cytometry buffer, cells were incubated with appropriate dilutions of various combinations of the following antibodies. […]

CD8+ T cells = experiment: In vitro co-culture of macrophages with T cells; assay type: cell-based, mouse; details: T cells co-cultured with histamine-treated macrophages vs vehicle-treated
Procedure: In vitro co-culture with T cells. Spleens from wild-type C57BL/6 or BALB/c mice were harvested and filtered through a […] cell strainer to generate a single-cell suspension. After red blood cell lysis, splenocytes were counted and plated in complete Roswell Park Memorial Institute 1640 medium supplemented with […] b-mercaptoethanol and 10 mM HEPES onto 12-well plates coated with […] anti-CD3 (clone 145-2C11, BioLegend) and […] anti-CD28 (clone 37N, BioLegend) antibodies. Spleen T cells were activated for 48 hours before co-culture with macrophages. To educate the macrophages, we co-cultured naïve BMDMs with tumor cells at a ratio of 1:1 or with tumor cell-derived conditioned medium for 48 hours. Macrophages were seeded with activated T cells at a ratio of 5:1. After co-culture for another 24 or 48 hours, T cells were collected for flow cytometry analysis.
as §1

lung cancer patients = experiment: Responses of anti-PD-1-treated lung cancer patients by plasma histamine; assay type: in vivo, human; details: patient count, lung cancer (n = 48)
Excerpt: (§2) Human samples. The untreated breast cancer samples including tumor tissues and blood plasma from TNBC patients who had undergone a mastectomy before therapy, normal breast tissues from women undergoing cosmetic breast surgery, and blood plasma from colon cancer patients and healthy subjects were collected at the First Affiliated Hospital of Chongqing Medical University. The blood plasma from patients with advanced lung (n=48), colon (n=12) and breast (n=10) cancers were collected pre-anti-PD1 treatment (patients were treated with Camrelizumab between Dec. 24, 2019 and Feb. 27, 2021) at the Beijing Friendship Hospital of Capital Medical. Best percentage change in the sum of the diameters for the selected target lesion is defined by Response Evaluation Criteria in Solid Tumors (RECIST version 1.1) on minimum 2 computed tomographic scans before treatment and 1 computed tomographic scan during treatment. The use of pathological specimens, as well as the review of all pertinent patient records, were approved by the Research Ethics Committee of the First Affiliated Hospital of Chongqing Medical University (project approval number 1005367 2017-012) and the Research Ethics Committee of Beijing Friendship Hospital of Capital Medical University (project approval number 2017-P2-141-01), and written informed consent were obtained from each participant and/or their legal representative, as appropriate.
(§3) Enzyme-linked immunosorbent assay (ELISA). The levels of histamine in cell culture supernatant, serum/plasma, and tissues were detected by Histamine ELISA kits (ENZ-KIT140-0001, Enzo; ab213975, Abcam) according to the manufacturer's instructions.

breast cancer patients = experiment: Responses of anti-PD-1-treated breast cancer patients by plasma histamine; assay type: in vivo, human; details: patient count, breast cancer (n = 10)
Excerpt: as §2, §3

colon cancer patients = experiment: Responses of anti-PD-1-treated colon cancer patients by plasma histamine; assay type: in vivo, human; details: patient count, colon cancer (n = 12)
Excerpt: as §2, §3

[2] = system: lung cancer, breast cancer, and colon cancer patients; experiment: Basket trial of anti-PD-1 treatment, response by pre-treatment plasma histamine (n=70); assay type: in vivo, human
Excerpt: as §2, §3

[3] = Histamine Medium (0.3-0.6 ng/ml)
[4] = Histamine Low (<0.3 ng/ml), no patients in group
[5] = patients with high levels of plasma histamine (>0.6 ng/mL)
[6] = patients with low levels of plasma histamine (<0.3 ng/mL)

C[C@H](CCC(=O)O)C[C@H](C)C[C@H](C)C(=O)/C=C(\O)[C@H](C)C[C@H](C)C/C=C/[C@@H](C)[C@@H](O)[C@@H](C)[C@@H](O)C[C@@H]1CC[C@@](C)([C@H]2CC[C@@](C)([C@@H](C)O)O2)O1 [ionomycin]
cell-surface VISTA expression (VISTA+ BMDMs; HRH1-/- TAMs, ionomycin): increased cell-surface VISTA expression

CC(=O)OCOC(=O)CN(CC(=O)OCOC(C)=O)c1ccccc1OCCOc1ccccc1N(CC(=O)OCOC(C)=O)CC(=O)OCOC(C)=O [BAPTA-AM]
HRH1-mediated membrane VISTA expression (VISTA+ BMDMs; WT TAMs, BAPTA-AM): reduced HRH1-mediated membrane VISTA expression

CN(C)C(=N)N=C(N)N [Metformin]
estimated patient number with poor outcome [1]: 3.5 | actual patient number with poor outcome [1]: 4

CC(=O)Oc1ccccc1C(=O)O [aspirin]
death rate (melanoma patients): reduced death rate | estimated patient number with poor outcome [1]: 8.5 | actual patient number with poor outcome [1]: 8

CC1(C)S[C@@H]2[C@H](NC(=O)[C@H](N)c3ccccc3)C(=O)N2[C@H]1C(=O)O [ampicillin]
death rate (melanoma patients): increased death rate

NCCc1c[nH]cn1 [histamine]
M2-like marker CD206 and M1-like marker MHCII (peritoneal macrophages): increased M2-like marker CD206 and reduced M1-like marker MHCII | T cell activation (CD8+ T cells): significantly suppressed T cell activation

B1: Camrelizumab (antibody, chains of the INN, looked up, V domains shown)
VH: EVQLVESGGGLVQPGGSLRLSCAASGFTFSSYMMSWVRQAPGKGLEWVATISGGGANTYYPDSVKGRFTISRDNAKNSLYLQMNSLRAEDTAVYYCARQLYYFDYWGQGTTVTVSS
VL: DIQMTQSPSSLSASVGDRVTITCLASQTIGTWLTWYQQKPGKAPKLLIYTATSLADGVPSRFSGSGSGTDFTLTISSLQPEDFATYYCQQVYSIPWTFGGGTKVEIK
notes: anti-PD1 treatment of the basket-trial patients (Camrelizumab)
Treatment response CR (lung cancer patients; Histamine High (≥0.6 ng/ml)): 0 | Treatment response PD (lung cancer patients; Histamine High (≥0.6 ng/ml)): 6 | Treatment response PR (lung cancer patients; Histamine High (≥0.6 ng/ml)): 2 | Treatment response SD (lung cancer patients; Histamine High (≥0.6 ng/ml)): 3 | Treatment response CR (lung cancer patients; Histamine Low (<0.3 ng/ml)): 1 | Treatment response PD (lung cancer patients; Histamine Low (<0.3 ng/ml)): 2 | Treatment response PR (lung cancer patients; Histamine Low (<0.3 ng/ml)): 9 | Treatment response SD (lung cancer patients; Histamine Low (<0.3 ng/ml)): 6 | Treatment response CR (lung cancer patients; [3]): 0 | Treatment response PD (lung cancer patients; [3]): 6 | Treatment response PR (lung cancer patients; [3]): 7 | Treatment response SD (lung cancer patients; [3]): 6 | Treatment response PD (breast cancer patients; Histamine High (≥ 0.6 ng/ml)): 4 | Treatment response PR (breast cancer patients; Histamine High (≥ 0.6 ng/ml)): 0 | Treatment response SD (breast cancer patients; Histamine High (≥ 0.6 ng/ml)): 2 | Treatment response PD (breast cancer patients; [4]): 0 | Treatment response PR (breast cancer patients; [4]): 0 | Treatment response SD (breast cancer patients; [4]): 0 | Treatment response PD (breast cancer patients; [3]): 1 | Treatment response PR (breast cancer patients; [3]): 1 | Treatment response SD (breast cancer patients; [3]): 2 | Treatment response PD (colon cancer patients; Histamine High (≥0.6 ng/ml)): 4 | Treatment response PR (colon cancer patients; Histamine High (≥0.6 ng/ml)): 2 | Treatment response SD (colon cancer patients; Histamine High (≥0.6 ng/ml)): 2 | Treatment response PD (colon cancer patients; [4]): 0 | Treatment response PR (colon cancer patients; [4]): 0 | Treatment response SD (colon cancer patients; [4]): 0 | Treatment response PD (colon cancer patients; [3]): 1 | Treatment response PR (colon cancer patients; [3]): 2 | Treatment response SD (colon cancer patients; [3]): 1 | disease control rate (DCR) [2, 5]: 44% | overall response rate (ORR) [2, 5]: 16% | disease control rate (DCR) [2, 6]: 88.3% | overall response rate (ORR) [2, 6]: 55.6%
